Like-named read-outs stand apart in the source and are kept apart here.
Columns and labels:
soluble human TNF-alpha [1] = target: T1, soluble human TNF-alpha (human, UniProt P01375 77-233); experiment: competition ELISA: VHH mixed with human TNF-alpha, binding to coated etanercept (TNFR2-Fc)
T1 construct: Recombinant, bought (Invitrogen PHC3015 in some assays); also called hs-TNF-alpha; h-TNF-alpha
Protocol: (§1) Variable domains were diluted and mixed with either human or cynomolgus monkey TNF-alpha (1.25 ng/ml) to allow binding before adding to the ELISA plates.

[2] = target: T2, soluble cynomolgus monkey TNF-alpha (cynomolgus monkey, UniProt P79337 77-233); experiment: cell-based or functional assay
soluble human TNF-alpha [3] = target: T1, soluble human TNF-alpha; experiment: cell-based or functional assay
[4] = target: T2, soluble cynomolgus monkey TNF-alpha; experiment: competition ELISA: VHH mixed with cynomolgus TNF-alpha, binding to coated etanercept (TNFR2-Fc)
Protocol: as §1

[5] = target: T3, non-cleavable transmembrane form of human TNF-alpha on CHO cells (mTNF-alpha-CHO) (human, UniProt P01375 1-233); experiment: cell-based or functional assay
[6] = target: T2, soluble cynomolgus monkey TNF-alpha; experiment: cell-based or functional assay; remark: listed apart in the source
soluble human TNF-alpha [7] = target: T1, soluble human TNF-alpha; experiment: cell-based or functional assay; remark: listed apart in the source
[8] = target: T3, non-cleavable transmembrane form of …; experiment: cell-based or functional assay; remark: listed apart in the source
soluble human TNF-alpha [9] = target: T1, soluble human TNF-alpha; experiment: cell-based or functional assay; remark: listed apart in the source
[10] = target: T3, non-cleavable transmembrane form of …; experiment: cell-based or functional assay; remark: listed apart in the source
soluble human TNF-alpha [11] = target: T1, soluble human TNF-alpha; experiment: cell-based or functional assay; remark: listed apart in the source
soluble human TNF-alpha [12] = target: T1, soluble human TNF-alpha; experiment: competition ELISA: VHH mixed with TNF-alpha 2.5 ng/ml, binding to coated hTNFR1
Protocol: Plate was washed in PBST using a plate washer and blocked for 1 hour in 200 ul 1% BSA per well. A threefold dilution series beginning at 30 nM for each antibody was incubated with 2.5 ng/ml TNF-alpha for 1 hour, 50 ul/well of which was then added to the washed plate and incubated for 5 hours. The plate was washed and incubated with 50 ul/well of a 1/1000 dilution of biotinylated rabbit alpha-hTNF (Peprotech P31AB7) in 1% BSA and incubated overnight at 4 degrees C. The plate was washed and incubated with 50 ul/well of a 1/1000 dilution of mAvidin HRP in 1% BSA for 1 hour before a final wash and incubation with 100 ul/well TMB substrate. The reaction was stopped after 20 minutes with 50 ul/well 0.5 M H2504 and absorbance was read at 450 nm. EC50 values were calculated from ELISA data in GraphPad Prism.

soluble human TNF-alpha [13] = target: T1, soluble human TNF-alpha; experiment: competition ELISA: VHH mixed with h-TNF-alpha, binding to coated etanercept

T3 sequence (P01375 whole entry): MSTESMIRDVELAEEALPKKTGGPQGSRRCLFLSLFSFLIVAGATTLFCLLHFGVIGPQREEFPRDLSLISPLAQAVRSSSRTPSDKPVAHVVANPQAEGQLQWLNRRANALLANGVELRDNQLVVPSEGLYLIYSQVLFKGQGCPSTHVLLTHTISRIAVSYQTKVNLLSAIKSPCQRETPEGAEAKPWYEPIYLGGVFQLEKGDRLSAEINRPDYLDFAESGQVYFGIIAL
T1 sequence (P01375 77-233 limits assumed): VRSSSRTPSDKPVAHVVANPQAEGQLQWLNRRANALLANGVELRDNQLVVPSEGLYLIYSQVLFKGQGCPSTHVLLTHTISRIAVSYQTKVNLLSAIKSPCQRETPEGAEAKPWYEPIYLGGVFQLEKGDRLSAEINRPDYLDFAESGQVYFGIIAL
T2 sequence (P79337 77-233 limits assumed): as the sequence (P01375 77-233 limits assumed) above, with L37V, R44T, T72N, R138L counted along it

| Binder | EC50 (soluble human TNF-alpha [1]) [nM] | EC50 [4] [nM] | Inhibition of cynomolgus TNF-induced L929 cell cytotoxicity EC50 [6] [nM] | Inhibition of human TNF-induced L929 cell cytotoxicity EC50 (soluble human TNF-alpha [7]) [nM] | Inhibition of mTNF-alpha-induced HEK-NF-kB SEAP Reporter (EC50 = nM) [8] [nM] | further results |
| --- | --- | --- | --- | --- | --- | --- |
| Q62E10 (VHH, not shown: small tags and cut ends, Family 2; purified from E. coli) VHH: QVQLVESGGGLVQPGGSLRLSCTTSGLDFGIHWMYWFRQAPGKELEWVAEINTNALITKYADSVKGRFTISRDNAKNTLFLQMNDLKSEDTAVYYCSNTQNGAAKGQGVQVTVSS | 0.8 | 1.2 | – | – | – | Inhibition of cynomolgus TNF-induced L929 cell cytotoxicity EC50 [2]: < 0.1 nM; Inhibition of human TNF-induced L929 cell cytotoxicity EC50 (soluble human TNF-alpha [3]): 0.2 nM; Inhibition of mTNF-alpha-induced HEK-NF-kB SEAP Reporter (EC50 = nM) [5]: 80 nM |
| Q65A3 (VHH, not shown: small tags and cut ends, Family 2; purified from E. coli) VHH: EVQLVESGGGLVQPGGSLRPSCTTSGLDFGIHWMYWFRQAPGKELEWVAEINTNALITKYADSVKGRFTISRDNAKNTLFLQMNDLKSEDTAVYYCSNTQNGAAKGQGVQVTVSS | 1.3 | 1.1 | 0.04 | 0.15 | 23.9 | – |
| Q65C7 (VHH, not shown: small tags and cut ends, Family 1; purified from E. coli) VHH: EVQLVESGGGLVQPGRSLRLSCTASGFDFSSHWMYWVRQAPGKGLEWVSEINTNGLITKYADFVKGRFTVSRDNAANTLYLEITRLEPEDTALYYCARNQKGLNKGQGTQVTVSS | 0.35 | 0.32 | 0.03 | 0.15 | 14.1 | – |
| Q65D3 (VHH, not shown: small tags and cut ends, Family 1; purified from E. coli) VHH: EVQLVESGGGLVQPGGSLRLSCVASGFDFSSHWMYWVRQAPGKGLEWVSEINTNGLITKYADSTKGRFTVSRDNAANMLNLEMTSLEPEDTALYYCARNERGLNKGQGTQVTVSS | 0.33 | 0.45 | 0.1 | 0.15 | 16 | EC50, HEK-293 NF-kB/SEAP reporter cells, human soluble TNF-alpha (soluble human TNF-alpha [9]): ~0.6 nM |
| Q62F2 (VHH, not shown: small tags and cut ends, Family 1; purified from E. coli) VHH: QVQLVESGGGLVQPGGSLRLSCAASGFDFNSHWMYWVRQAPGKGLEWVSEINTNGLITNYVDSVKGRFTVSRDNAANTLYLEMTSLKPEDTALYYCARNQKGLNKGQGTQVTVSS | 0.7 | 1.3 | – | – | – | Inhibition of cynomolgus TNF-induced L929 cell cytotoxicity EC50 [2]: 0.8 nM; Inhibition of human TNF-induced L929 cell cytotoxicity EC50 (soluble human TNF-alpha [3]): 1 nM; Inhibition of mTNF-alpha-induced HEK-NF-kB SEAP Reporter (EC50 = nM) [5]: 34 nM |
| Q65D1 (VHH, not shown: small tags and cut ends, Family 1; purified from E. coli) VHH: EVQLVESGGGLVQPGGSLRLSCTASGFDFDNHWMCWVRQAPGKGLEWVSEINTNGLITKYADFVKGRFTVSRDNAANTLYLQITRLKPEDTALYYCARNQKGLNKGQGTQVTVSS | 0.37 | 0.32 | 0.06 | 0.1 | 15.3 | – |
| Q65B1 (VHH, not shown: small tags and cut ends, Family 1; purified from E. coli; parent of the ID series) VHH: EVQLVESGGGLVQPGGSLKLSCAASGFDFSSHWMYWVRQAPGKELEWLSEINTNGLITKYGDSVKGRFTVSRNNAANKMYLELTRLEPEDTALYYCARNQKGLNKGQGTQVTVSS | 0.29 | 0.45 | 0.01 | 0.04 | 10.9 | mTNF-alpha neutralisation EC50 (nM), NF-kB/SEAP HEK-293 cellular reporter assay [10]: 8.72 nM; EC50, HEK-293 NF-kB/SEAP reporter cells, human soluble TNF-alpha (soluble human TNF-alpha [9]): ~0.2 nM |
| ID34F (VHH) VHH: EVQLVESGGGLVQPGGSLKLSCAASGFDFSSHWMYWVRQAPGKELEWLSEINTNGLITHYGDSVKGRFTVSRNNAANKMYLELTRLEPEDTALYYCARNQHGLNKGQGTQVTVSS | – | – | – | – | – | mTNF-alpha neutralisation EC50 (nM), NF-kB/SEAP HEK-293 cellular reporter assay [10]: 4.71 nM |
| ID38F (VHH, Q65B1 with N-terminal DVQLV, K59H and K101H; no His-tag; also called ID38F (S. cerevisiae-produced)) VHH: DVQLVESGGGLVQPGGSLKLSCAASGFDFSSHWMYWVRQAPGKELEWLSEINTNGLITHYGDSVKGRFTVSRNNAANKMYLELTRLEPEDTALYYCARNQHGLNKGQGTQVTVSS | – | – | – | – | – | EC50 (nM), neutralisation of human soluble TNF-alpha-induced cytotoxicity in L929 cells (soluble human TNF-alpha [11]): 0.127 nM; mTNF-alpha neutralisation EC50 (nM), NF-kB/SEAP HEK-293 cellular reporter assay [10]: 5.16 nM; EC50 (soluble human TNF-alpha [12]): 0.61 nM |
| ID8F-EV (VHH, not shown: small tags and cut ends) VHH: EVQLVESGGGLVQPGGSLKLSCAASGFDFSSHWMYWVRQAPGKELEWLSEINTNGLITHYGDSVKGRFTVSRNNAANKMYLELTRLEPEDTALYYCARNQKGLNKGQGTQVTVSS | – | – | – | – | – | mTNF-alpha neutralisation EC50 (nM), NF-kB/SEAP HEK-293 cellular reporter assay [10]: 7.69 nM |
| ID9F-EV (VHH, Q65B1 monomer mutant with His-tag; not shown: C-terminal His-tag (c-myc-6His or Flag-6His)) VHH: EVQLVESGGGLVQPGGSLKLSCAASGFDFSSHWMYWVRQAPGKELEWLSEINTNGLITKYGDSVHGRFTVSRNNAANKMYLELTRLEPEDTALYYCARNQKGLNKGQGTQVTVSS | – | – | – | – | – | binding result (soluble human TNF-alpha [13]): binds |
| ID15F-EV (VHH, Q65B1 monomer mutant with His-tag; not shown: C-terminal His-tag (c-myc-6His or Flag-6His)) VHH: EVQLVESGGGLVQPGGSLKLSCAASGFDFSSHWMYWVRQAPGKELEWLSEINTNGLITKYGDSVKGRFTVSRNNAANKMYLELTRLEPEDTALYYCARNQHGLNHGQGTQVTVSS | – | – | – | – | – | binding result (soluble human TNF-alpha [13]): binds |
| ID13F-EV (VHH, Q65B1 monomer mutant with His-tag; not shown: C-terminal His-tag (c-myc-6His or Flag-6His)) VHH: EVQLVESGGGLVQPGGSLKLSCAASGFDFSSHWMYWVRQAPGKELEWLSEINTNGLITKYGDSVKGRFTVSRNNAANKMYLELTRLEPEDTALYYCARNQHGLNKGQGTQVTVSS | – | – | – | – | – | binding result (soluble human TNF-alpha [13]): binds |
| Q65E12 (VHH, not shown: small tags and cut ends, Family 2; purified from E. coli) VHH: EVQLVESGGGLVQPGGSLRLSCSASGFDFSIHWMYWVRQAPGKELEWVAEINTNGLITLYADSVKGRFTASRDNAKNALFLQMNDLKFEDTAVYYCAKSRNGAAGGQGTQVTVSS | 47 | 65 | 4 | 4 | 174 | – |
| Q65F6 (VHH, not shown: small tags and cut ends, Family 2; purified from E. coli) VHH: EVQLVESGGGLVQPGGSLRLSCTASGFDFGIHWMYWVRQAPGKELEWVAEINTNGLITLYSDSVRGRFTASRDNANNALFLQMNDLKFEDTAVYYCAKSRNGAAKGQGTQVTVSS | 13 | 24 | 1 | 1.5 | 110 | – |
| Q62F10 (VHH, not shown: small tags and cut ends, Family 2; purified from E. coli) VHH: EVQLVESGGGLVQPGGSLRLSCVASGFDFNIHWMYWVRQAPGKELEWVAEINTNGLITVYPDSVKGRFTISRDNAKNTLFLQMNNLKFEDTAVYYCTNTQNGKTKGQGTQVTVSS | 30 | 108 | – | – | – | Inhibition of cynomolgus TNF-induced L929 cell cytotoxicity EC50 [2]: 1.3 nM; Inhibition of human TNF-induced L929 cell cytotoxicity EC50 (soluble human TNF-alpha [3]): 2 nM |
| Q62F11 (VHH, not shown: small tags and cut ends, Neither Family 1 nor Family 2; purified from E. coli) VHH: QVQLVESGGGLVQPGGSLRLSCAASGFSFSDYVMGWFRQAPGKEREFVGFIRWDGLVTRYADAVKGRFTISRDNARNTLSLQTIGLLAEDTAVYYCAASGGGSGPVNAGSYEYWGQGTQVTVSS | 2.3 | 1.4 | – | – | – | Inhibition of cynomolgus TNF-induced L929 cell cytotoxicity EC50 [2]: 1.5 nM; Inhibition of human TNF-induced L929 cell cytotoxicity EC50 (soluble human TNF-alpha [3]): 6 nM; Inhibition of mTNF-alpha-induced HEK-NF-kB SEAP Reporter (EC50 = nM) [5]: 40 nM |
| ID22F (VHH) EVQLVESGGGLVQPGGSLKLSCAASGFDFSSHWMYWVRQAPGKELEWLSEINTNGLITKYGDSVKGRFTVSRNNAANKMYLELTRLEPEDTALYYCARNQKGLNKGQGTQVTVSSGGGGSGGGGSGGGGSGGGGSGGGGSGGGGSEVQLVESGGGLVQPGGSLKLSCAASGFDFSSHWMYWVRQAPGKELEWLSEINTNGLITKYGDSVKGRFTVSRNNAANKMYLELTRLEPEDTALYYCARNQKGLNKGQGTQVTVSS | – | – | – | – | – | potency relative to the monomer, soluble TNF-induced HEK293-NF-kB-SEAP reporter assay (soluble human TNF-alpha [9]): ~10 fold |
